From US20240262922A1 (Merck KGaA, published 2024)

Experiments:
[1] = biological target: T1, recombinant human OX40L protein (R&D Systems, cat. #1054-OX) (human, UniProt P23510 51-183); test: SPR steady state, Biacore T200; OX40L immobilised on CM5, antibody in solution
T1 construct: Bought soluble recombinant protein; also called rhOX40L; recombinant soluble OX40L
T1 sequence: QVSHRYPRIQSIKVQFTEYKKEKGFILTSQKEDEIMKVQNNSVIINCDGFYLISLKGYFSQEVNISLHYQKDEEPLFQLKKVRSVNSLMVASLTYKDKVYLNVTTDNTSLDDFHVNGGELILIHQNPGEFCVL
Description: Recombinant OX40L proteins (human OX40L protein, R&D systems, cat. #1054-OX; cynomolgus monkey OX40L, Novoprotein cat. #CP72) were immobilized onto Biacore CM5 sensor chips and anti-OX40L antibodies were bound to this surface at a range of concentrations. The response at steady state was measured with a Biacore T200 instrument (GE Healthcare) and plotted against the concentration of antibody and fit to a 1:1 binding model. The steady state KD was determined as the antibody concentration at a response equal to half the maximal response (Rₘₐₓ).
As with the IgG clones, binding affinity to human OX40L was determined for all twelve FcFabs using steady state affinity assay as described in section 1.1.7 of Example 1. […]

AVI-GST-His6-hOX40L = biological target: T2, AVI-GST-His6-hOX40L (human, UniProt P23510 51-183); test: cell-based or functional assay
T2 sequence: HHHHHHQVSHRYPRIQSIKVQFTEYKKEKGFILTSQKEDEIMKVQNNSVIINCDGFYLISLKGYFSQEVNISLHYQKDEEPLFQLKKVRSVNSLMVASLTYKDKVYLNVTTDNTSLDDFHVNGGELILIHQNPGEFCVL

[2] = biological target: T1, recombinant human OX40L protein (R&D …); test: cell-based or functional assay

B1: 84E11 (FcFab) (antibody)
heavy: EPKSSDKTHTCPPCPAPPVAGPSVFLFPPKPKDTLMISRTPEVTCVVVDVSHEDPEVKFNWYVDGVEVHNAKTKPREEQYNSTYRVVSVLTVLHQDWLNGKEYKCAVSNKALPSSIEKTISKAKGQPREPQVYTLPPSREEMTKNQVSLTCLVKGFYPSDIAVEWESNGQPENNYKTTPPVLDSDGSFFLYSKLTVDKSRWQQGNVFSCSVMHEALHNHYTQKSLSLSPGAGGGGSGGGGSGGGGSQLQLQESGPGLVKPSETLSLTCTVSGGSISSGSFYWGWIRQPPGKGLEWIGTIYYSGSTYYNPSLKSRVAISVDTSKNQFYLNLNFVTAADTAVYHCARERSSSWYPFDYWGQGTLVTVSSASTKGPSVFPLAPSSKSTSGGTAALGCLVKDYFPEPVTVSWNSGALTSGVHTFPAVLQSSGLYSLSSVVTVPSSSLGTQTYICNVNHKPSNTKVDKRVEPKSC
light: SSELTQDPAVSVALGQTVRITCQGDSLRNYFANWYQQKPGQAPVLVIYGKNNRPSGIPDRFSGSSSGNTASLTITGAQAEDEADYYCNSRDSSGYHVVFGGGTKLTVLGQPKAAPSVTLFPPSSEELQANKATLVCLISDFYPGAVTVAWKADSSPVKAGVETTTPSKQSNNKYAASSYLSLTPEQWKSHKSYSCQVTHEGSTVEKTVAPTECS
- binding result [1]: no binding
- OX40L neutralization/OX40-HEK Reporter IC50 (AVI-GST-His6-hOX40L): 57.2 nM
- Primary T cell activation assay IC50 [2]: 15.2 nM
